In publication PMC10611751 (2023):
Like-named read-outs stand apart in the source and are kept apart here.

T1: Ankyrin-G 24 ANK repeats (residues 38-855) (UniProt O70511 38-855)
T1 chain: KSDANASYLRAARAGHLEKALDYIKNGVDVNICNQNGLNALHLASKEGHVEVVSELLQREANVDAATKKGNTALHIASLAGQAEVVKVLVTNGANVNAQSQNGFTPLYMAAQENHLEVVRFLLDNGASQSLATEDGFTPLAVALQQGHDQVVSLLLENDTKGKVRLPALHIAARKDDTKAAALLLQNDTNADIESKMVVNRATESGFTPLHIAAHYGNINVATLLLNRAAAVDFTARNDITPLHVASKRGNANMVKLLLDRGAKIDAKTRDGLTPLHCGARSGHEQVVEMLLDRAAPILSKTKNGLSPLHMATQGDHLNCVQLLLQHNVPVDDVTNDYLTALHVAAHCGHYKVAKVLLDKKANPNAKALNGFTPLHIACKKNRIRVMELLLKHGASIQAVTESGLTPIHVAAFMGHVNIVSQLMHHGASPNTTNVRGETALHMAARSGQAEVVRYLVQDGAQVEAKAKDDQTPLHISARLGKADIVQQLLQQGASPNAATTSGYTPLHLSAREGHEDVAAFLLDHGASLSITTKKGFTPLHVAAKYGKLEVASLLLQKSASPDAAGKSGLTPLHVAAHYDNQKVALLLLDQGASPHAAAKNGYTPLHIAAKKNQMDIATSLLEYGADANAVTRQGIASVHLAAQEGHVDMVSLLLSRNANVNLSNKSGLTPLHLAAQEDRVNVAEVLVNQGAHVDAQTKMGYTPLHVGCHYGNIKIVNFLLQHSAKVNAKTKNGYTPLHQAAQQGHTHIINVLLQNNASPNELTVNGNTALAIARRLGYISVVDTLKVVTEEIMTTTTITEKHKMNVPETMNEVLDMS

T2: full-length β-catenin 1-781 (mouse, UniProt Q02248 1-781)
T2 chain: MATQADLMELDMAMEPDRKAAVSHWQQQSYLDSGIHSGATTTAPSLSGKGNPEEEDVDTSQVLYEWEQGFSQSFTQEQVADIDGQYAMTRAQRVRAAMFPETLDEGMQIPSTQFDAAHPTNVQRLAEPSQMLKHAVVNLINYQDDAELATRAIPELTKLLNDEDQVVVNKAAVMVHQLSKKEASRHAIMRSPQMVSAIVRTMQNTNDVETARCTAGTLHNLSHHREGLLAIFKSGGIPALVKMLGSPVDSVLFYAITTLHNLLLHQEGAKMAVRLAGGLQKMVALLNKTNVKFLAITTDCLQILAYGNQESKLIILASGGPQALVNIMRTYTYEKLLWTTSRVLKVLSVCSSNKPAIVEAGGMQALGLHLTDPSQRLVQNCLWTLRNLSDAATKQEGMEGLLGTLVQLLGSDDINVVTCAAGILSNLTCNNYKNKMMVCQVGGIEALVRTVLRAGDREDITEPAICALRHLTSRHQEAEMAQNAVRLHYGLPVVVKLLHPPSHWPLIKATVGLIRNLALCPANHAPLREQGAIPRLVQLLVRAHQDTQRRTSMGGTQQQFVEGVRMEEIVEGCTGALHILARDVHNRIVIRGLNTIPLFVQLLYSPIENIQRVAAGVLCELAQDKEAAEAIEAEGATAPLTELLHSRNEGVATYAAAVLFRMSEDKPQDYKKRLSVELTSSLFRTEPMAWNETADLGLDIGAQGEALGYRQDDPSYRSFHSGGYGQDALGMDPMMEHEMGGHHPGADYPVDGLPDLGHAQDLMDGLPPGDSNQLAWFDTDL


Columns and labels:
Assay in all cases: ITC
[1] = molecular target: T1, Ankyrin-G 24 ANK repeats (residues …)
[2] = molecular target: T2, full-length β-catenin 1-781
[3] = molecular target: T2, full-length β-catenin 1-781

Row | Kd [1] | Binder | further results
1 | 600 nM | E-cadherin CTD–β-catenin complex (complex) chain 1: not shown chain 2: MATQADLMELDMAMEPDRKAAVSHWQQQSYLDSGIHSGATTTAPSLSGKGNPEEEDVDTSQVLYEWEQGFSQSFTQEQVADIDGQYAMTRAQRVRAAMFPETLDEGMQIPSTQFDAAHPTNVQRLAEPSQMLKHAVVNLINYQDDAELATRAIPELTKLLNDEDQVVVNKAAVMVHQLSKKEASRHAIMRSPQMVSAIVRTMQNTNDVETARCTAGTLHNLSHHREGLLAIFKSGGIPALVKMLGSPVDSVLFYAITTLHNLLLHQEGAKMAVRLAGGLQKMVALLNKTNVKFLAITTDCLQILAYGNQESKLIILASGGPQALVNIMRTYTYEKLLWTTSRVLKVLSVCSSNKPAIVEAGGMQALGLHLTDPSQRLVQNCLWTLRNLSDAATKQEGMEGLLGTLVQLLGSDDINVVTCAAGILSNLTCNNYKNKMMVCQVGGIEALVRTVLRAGDREDITEPAICALRHLTSRHQEAEMAQNAVRLHYGLPVVVKLLHPPSHWPLIKATVGLIRNLALCPANHAPLREQGAIPRLVQLLVRAHQDTQRRTSMGGTQQQFVEGVRMEEIVEGCTGALHILARDVHNRIVIRGLNTIPLFVQLLYSPIENIQRVAAGVLCELAQDKEAAEAIEAEGATAPLTELLHSRNEGVATYAAAVLFRMSEDKPQDYKKRLSVELTSSLFRTEPMAWNETADLGLDIGAQGEALGYRQDDPSYRSFHSGGYGQDALGMDPMMEHEMGGHHPGADYPVDGLPDLGHAQDLMDGLPPGDSNQLAWFDTDL | –
2 | 1200 nM | E-cadherin 776-884–β-catenin complex (protein) chain 1: not shown chain 2: MATQADLMELDMAMEPDRKAAVSHWQQQSYLDSGIHSGATTTAPSLSGKGNPEEEDVDTSQVLYEWEQGFSQSFTQEQVADIDGQYAMTRAQRVRAAMFPETLDEGMQIPSTQFDAAHPTNVQRLAEPSQMLKHAVVNLINYQDDAELATRAIPELTKLLNDEDQVVVNKAAVMVHQLSKKEASRHAIMRSPQMVSAIVRTMQNTNDVETARCTAGTLHNLSHHREGLLAIFKSGGIPALVKMLGSPVDSVLFYAITTLHNLLLHQEGAKMAVRLAGGLQKMVALLNKTNVKFLAITTDCLQILAYGNQESKLIILASGGPQALVNIMRTYTYEKLLWTTSRVLKVLSVCSSNKPAIVEAGGMQALGLHLTDPSQRLVQNCLWTLRNLSDAATKQEGMEGLLGTLVQLLGSDDINVVTCAAGILSNLTCNNYKNKMMVCQVGGIEALVRTVLRAGDREDITEPAICALRHLTSRHQEAEMAQNAVRLHYGLPVVVKLLHPPSHWPLIKATVGLIRNLALCPANHAPLREQGAIPRLVQLLVRAHQDTQRRTSMGGTQQQFVEGVRMEEIVEGCTGALHILARDVHNRIVIRGLNTIPLFVQLLYSPIENIQRVAAGVLCELAQDKEAAEAIEAEGATAPLTELLHSRNEGVATYAAAVLFRMSEDKPQDYKKRLSVELTSSLFRTEPMAWNETADLGLDIGAQGEALGYRQDDPSYRSFHSGGYGQDALGMDPMMEHEMGGHHPGADYPVDGLPDLGHAQDLMDGLPPGDSNQLAWFDTDL | –
3 | – | E-cadherin 776-884–AnkG R1-24 complex (complex) chain 1: not shown chain 2: KSDANASYLRAARAGHLEKALDYIKNGVDVNICNQNGLNALHLASKEGHVEVVSELLQREANVDAATKKGNTALHIASLAGQAEVVKVLVTNGANVNAQSQNGFTPLYMAAQENHLEVVRFLLDNGASQSLATEDGFTPLAVALQQGHDQVVSLLLENDTKGKVRLPALHIAARKDDTKAAALLLQNDTNADIESKMVVNRATESGFTPLHIAAHYGNINVATLLLNRAAAVDFTARNDITPLHVASKRGNANMVKLLLDRGAKIDAKTRDGLTPLHCGARSGHEQVVEMLLDRAAPILSKTKNGLSPLHMATQGDHLNCVQLLLQHNVPVDDVTNDYLTALHVAAHCGHYKVAKVLLDKKANPNAKALNGFTPLHIACKKNRIRVMELLLKHGASIQAVTESGLTPIHVAAFMGHVNIVSQLMHHGASPNTTNVRGETALHMAARSGQAEVVRYLVQDGAQVEAKAKDDQTPLHISARLGKADIVQQLLQQGASPNAATTSGYTPLHLSAREGHEDVAAFLLDHGASLSITTKKGFTPLHVAAKYGKLEVASLLLQKSASPDAAGKSGLTPLHVAAHYDNQKVALLLLDQGASPHAAAKNGYTPLHIAAKKNQMDIATSLLEYGADANAVTRQGIASVHLAAQEGHVDMVSLLLSRNANVNLSNKSGLTPLHLAAQEDRVNVAEVLVNQGAHVDAQTKMGYTPLHVGCHYGNIKIVNFLLQHSAKVNAKTKNGYTPLHQAAQQGHTHIINVLLQNNASPNELTVNGNTALAIARRLGYISVVDTLKVVTEEIMTTTTITEKHKMNVPETMNEVLDMS | Kd [2]: 80 nM
4 | – | E-cadherin CTD–AnkG R1-24 complex (complex) chain 1: not shown chain 2: KSDANASYLRAARAGHLEKALDYIKNGVDVNICNQNGLNALHLASKEGHVEVVSELLQREANVDAATKKGNTALHIASLAGQAEVVKVLVTNGANVNAQSQNGFTPLYMAAQENHLEVVRFLLDNGASQSLATEDGFTPLAVALQQGHDQVVSLLLENDTKGKVRLPALHIAARKDDTKAAALLLQNDTNADIESKMVVNRATESGFTPLHIAAHYGNINVATLLLNRAAAVDFTARNDITPLHVASKRGNANMVKLLLDRGAKIDAKTRDGLTPLHCGARSGHEQVVEMLLDRAAPILSKTKNGLSPLHMATQGDHLNCVQLLLQHNVPVDDVTNDYLTALHVAAHCGHYKVAKVLLDKKANPNAKALNGFTPLHIACKKNRIRVMELLLKHGASIQAVTESGLTPIHVAAFMGHVNIVSQLMHHGASPNTTNVRGETALHMAARSGQAEVVRYLVQDGAQVEAKAKDDQTPLHISARLGKADIVQQLLQQGASPNAATTSGYTPLHLSAREGHEDVAAFLLDHGASLSITTKKGFTPLHVAAKYGKLEVASLLLQKSASPDAAGKSGLTPLHVAAHYDNQKVALLLLDQGASPHAAAKNGYTPLHIAAKKNQMDIATSLLEYGADANAVTRQGIASVHLAAQEGHVDMVSLLLSRNANVNLSNKSGLTPLHLAAQEDRVNVAEVLVNQGAHVDAQTKMGYTPLHVGCHYGNIKIVNFLLQHSAKVNAKTKNGYTPLHQAAQQGHTHIINVLLQNNASPNELTVNGNTALAIARRLGYISVVDTLKVVTEEIMTTTTITEKHKMNVPETMNEVLDMS | Kd [3]: 98 nM
